This note sets out measurements from article PMC10462110 (bioRxiv, 2023).

In test [1] the target is GFP-tagged tauC3 S416E, doxycycline-inducible in HEK293 Flp-In T-REx cells. Description: co-IP.
The target of test [2] is Recombinant human CHIP (C-terminus of Hsc70 interacting protein; STUB1) (human) (UniProt Q9UNE7). Description: ELISA.
Test [3] addresses CHIP (UniProt Q9UNE7). Description: differential scanning fluorimetry of CHIP. The conditions noted are these: reference: WT peptide; sites S416. A general note: In DSF a fluorescence change marks the thermal transition of the protein.
The target in test [4] is CHIP (UniProt Q9UNE7). Description: co-IP with anti-Tau-5, CHIP blot. The conditions noted are these: reference: GFP-tauC3; sites S416.
In test [5] the target is Recombinant human CHIP (C-terminus of Hsc70 interacting protein; STUB1) (human) (UniProt Q9UNE7). As to the kind of experiment: ELISA. This is another data set of the same source. For orientation: An ELISA detects its analyte on a solid surface through an enzyme-linked reagent.
The target of test [6] is CHIP, NanoBiT fusion expressed in HEK293T cells (UniProt Q9UNE7). As to the kind of experiment: split reporter.
In another test the target is T1, CHIP F131A (human, UniProt Q9UNE7 1-303, F131A).
T1 sequence (looked up): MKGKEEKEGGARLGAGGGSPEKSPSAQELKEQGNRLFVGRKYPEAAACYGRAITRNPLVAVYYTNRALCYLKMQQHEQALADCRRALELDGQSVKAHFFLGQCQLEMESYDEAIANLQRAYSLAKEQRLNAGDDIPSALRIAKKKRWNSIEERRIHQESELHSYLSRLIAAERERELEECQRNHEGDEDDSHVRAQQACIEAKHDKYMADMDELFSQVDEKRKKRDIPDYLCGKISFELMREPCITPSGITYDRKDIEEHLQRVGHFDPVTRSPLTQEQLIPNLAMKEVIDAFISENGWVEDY
Description: differential scanning fluorimetry.

Test [7] deals with T2, Recombinant human CHIP (C-terminus of Hsc70 interacting protein; STUB1) (human, UniProt Q9UNE7 1-303).
T2 sequence (looked up): T1 sequence (looked up) with A131F
Description: fluorescence polarisation. In general terms: In fluorescence polarisation assays a small probe gives low polarisation when free and higher when bound to something large.

Test [8] deals with T3, CHIP D134A (human, UniProt Q9UNE7 1-303, D134A).
T3 sequence (looked up): T1 sequence (looked up) with A131F, D134A
As to the kind of experiment: fluorescence polarisation.

The target of test [9] is T3, CHIP D134A. As to the kind of experiment: differential scanning fluorimetry.

Residue numbers refer to the chain shown, from its start. Like-named read-outs stand apart in the source and are kept apart here. Where no end group is shown, it is not given here. [ ]: non-standard residue; d: D form. pS = N[C@@H](COP(=O)(O)O)C(=O)O

“endogenous CHIP (from UniProt Q9UNE7 1-303) (enzyme)”: the relative amount of CHIP bound (normalized to tauC3) in test [1] was 0.55.

In the case of “natively phosphorylated tauC3 (p.tauC3) from Sf9 insect cells (domain or fragment)”, the Kd in [2] is 0.7 µM.

On to “tau (MAPT); tauC3 proteoform C-terminal 10-mer ending at D421 (from UniProt P10636-8) S416E peptide (…)”, for which the “other: CHIP apparent Tm” value in the test with CHIP [3] is “weaker; reference 48.81 ± 0.11”.

For the molecule “tau (MAPT); tauC3 proteoform tauC3, C-terminus at D421 (from UniProt P10636-8) GFP-tauC3 S416E”, in the test with CHIP [4], the other: relative CHIP bound, normalised to tauC3 was 0.55.

“tauC3 (unmodified, produced from E. coli) (domain or fragment)”: the Kd in test [2] amounted to 0.19 µM; in test [5], 0.09 µM.

With “tauC3 S416E (purified protein) (domain or fragment)”, in test [5], the Kd stood at 0.78 µM.

“tauC3, NanoBiT fusion expressed in HEK293T cells (domain or fragment)” returned a fold binding over FL tau in test [6] of 5 fold.

Ac-SSTGSIDMVD-OH [acetylated 10-mer peptide corresponding to the tauC3 C-terminus (Ac-SSTGSIDMVD-OH)]: the binding result with CHIP F131A is “binds”. Moreover, the results for the Ki (in [7]; with CHIP D134A [8]) were 0.15 ± 0.02 µM and 5.57 ± 0.34 µM, respectively.

Regarding Ac-SSTGEIDMVD [pS416 phosphomimetic 10-mer tauC3 peptide (SSTGEIDMVD)], the binding result with CHIP F131A and in the test with CHIP D134A [9] was “binds” each time. Moreover, the Ki in [7] was found to be 2.41 ± 0.33 µM.

As for SSTG[pS]IDMVD [tauC3 pS416 10-mer peptide], the figures for the Ki (in test [7]; in the test with CHIP D134A [8]) were 1.01 ± 0.99 µM and 1.84 ± 0.23 µM, respectively.

As usually defined, the Kd is the constant that tells how readily two partners part at equilibrium. Broadly, the Ki is a measure of affinity in units of concentration, obtained from inhibition or displacement.
